Assay results reported in patent US20030170895A1, “Methods of making hypermutable cells using PMSR homologs” (priority 2002, published 2003).

Legend:
[1] = test system: Yeast cells that express hPMS2-R2; assay: Chemical mutagen (EMS) plus MMR-defective yeast, ura mutant selection on 5-FOA plates; type: cell-based; conditions: EMS 0-200 pM, 30-120 minutes; PMS2-R2 cultures induced with methanol vs uninduced parental or wild type strain
From the text: It has been previously documented that MMR deficiency yields to increased mutation frequency and increased resistance to toxic effects of chemical mutagens (CM) and their respective analogues such as but not limited to those as: ethidium bromide, EMS, MNNG, MNU, Tamoxifen, 8-Hydroxyguanine, as well as others listed but not limited to in publications by: Khromov-Borisov, N. N., et al. (1999) Mutat. Res. 430:55-74; Ohe, T. et al. (1999) Mutat. Res. 429:189-199; Hour, T. C. et al. (1999) Food Chem. Toxicol. 37:569-579; Hrelia, P. et al. (1999) Chem. Biol. Interact. 118:99-111; Garganta, F. et al. (1999) Environ. Mol. Mutagen. 33:75-85; Ukawa-Ishikawa S. et al. (1998) Mutat. Res. 412:99-107; www.ehs.utah.edu/ohh/mutagens; Marcelino, L. A. et al (1998) Cancer Res. 58(13):2857-2862; Koi, M. et al. (1994) Cancer Res. 54:4308-4312. Mismatch repair provokes chromosome aberrations in hamster cells treated with methylating agents or 6thioguanine, but not with ethylating agents.
Yeast cells that express hPMS2-R2 (induced or un-induced) and empty vector control cells are grown as described in Examples 5 and 6) and for 24 hours and diluted into MM medium as described above. Next, the cells in MM are incubated either with or without increasing amounts of ethyl methane sulfonate (EMS) from 0, 1, 10, 50, 100, and 200 pM. […] Mutants are selected and scored as above. […]

wild type yeast cell = conditions: mutagen treatment; Boeke et al. 1984; cited from earlier work
293 cells = assay: β-galactosidase activity from MMR-sensitive pCAR-OF reporter; type: cell-based; conditions: 293 cells expressing the homolog plus pCAR-OF reporter, grown 17 days; FIG. 5
From the text: Cells in which MMR activity is decreased results in MI leading to insertion-deletion mutations within the β-galactosidase gene, a subset of which will restore the open reading frame (ORF) and produce functional enzyme. Cells are grow for 17 days and then harvested for protein lysates to measure β-galactosidase activity generated by each cell line. Cells in which a high rate of mutagenesis has occurred will produce β-galactosidase activity, while cells in which MMR activity is functional will retain background levels of enzymatic activity. Each cell line was tested in two independent experiments (experiment 1 and experiment 2). Extracts were incubated with a calorimetric galactose substrate for 1 hour. Enzyme activity as a function of substrate conversion was measured by optical density at 576 nm as described (Nicolaides, N. C. et al. (1998) Mol. Cell. Biol. 18:1635-1641). […] MI was monitored at the gene level to confirm that genetic alterations occurred within the polynucleotide repeat disrupting the β-galactosidase ORF.

[2] = test system: Pichia pastoris yeast cells; assay: Generation of uracil requiring mutants, 5-FOA selection after methanol induction; type: cell-based
Experimental: Pichia pastoris yeast cells were transformed with pPIC3.5K vector, pPIC3.5K-PMS134, and pPIC3.5K-hR2 as follows. First, 5 ml of YPD (1% yeast extract, 2% bacto-peptone, 1% dextrose) medium was inoculated with a single colony from a YPD plate (same as YPD liquid but add 2% Difco agar to plate) and incubated with shaking overnight at 30° C. The overnight culture was used to inoculate 500 ml of YPD medium (200 ul of overnight culture) and the culture incubated at 30° C. until the optical density at 600 nm reached 1.3 to 1.5. The cells were then spun down (4000×g for 10 minutes), and then washed 2 times in sterile water (one volume each time), then the cells suspended in 20 ml of 1 M sorbitol. The sorbitol/cell suspension was spun down (4,000×g for 10 minutes) and suspended in 1 ml of 1 M sorbitol. 80 ul of the cell suspension was mixed with 5 to 10 ug of linearized plasmid DNA and placed in a 0.2 cm cuvette, pulsed length 5 to 10 milliseconds at field strength of 7,500 V/cm. Next, the cells are diluted in 1 ml of 1 M sorbitol and transferred to a 15 ml tube and incubated at 30° C. for 1 to 2 hours without shaking. Next, the cells are spun out (4,000×G for 10 minutes) and suspended in 100 ul of sterile water, and 50 ul/plate spread onto the appropriate selective medium plate. The plates are incubated for 2 to 3 days at 30° C. and colonies patched out onto YPD plates for further testing. […]

CCOS(C)(=O)=O [EMS, ethyl methane sulfonate]
frequency of ura mutants [1]: increase in the frequency of ura mutants | number of ura mutants (wild type yeast cell): low number of ura mutants

B1: PMSR3: human PMS2 homolog, dominant negative mismatch repair inhibitor (SEQ ID NO:19/20) (protein, listed as Homo sapiens)
chain: MCPWRPRLGRRCMVSPREADLGPQKDTRLDLPRSPARAPREQNSLGEVDRRGPREQTRAPATAAPPRPLGSRGAEAAEPQEGLSATVSACFQEQQEMNTLQGPVSFKDVAVDFTQEEWRQLDPDEKIAYGDVMLENYSHLVSVGYDYHQAKHHHGVEVKEVEQGEEPWIMEGEFPCQHSPEPAKAIKPIDRKSVHQICSGPVVLSLSTAVKELVENSLDAGATNIDLKLKDYGVDLIEVSDNGCGVEEENFEGLISFSSETSHM
microsatellite instability / β-galactosidase activity (293 cells): high degree of MI leading to an increase in β-galactosidase activity

B2: PMSR2: human PMS2 related gene/protein, PMS2 homolog, dominant negative mismatch repair inhibitor (SEQ ID NO:17/18) (protein, listed as Homo sapiens)
chain: MAQPKQERVARARHQRSETARHQRSETAKTPTLGNRQTPTLGNRQTPRLGIHARPRRRATTSLLTLLLAFGKNAVRCALIGPGSLTSRTRPLTEPLGEKERREVFFPPRPERVEHNVESSRWEPRRRGACGSRGGNFPSPRGGSGVASLERAENSSTEPAKAIKPIDRKSVHQICSGPVVPSLRPNAVKELVENSLDAGATNVDLKLKDYGVDLIEVSGNGCGVEEENFEGFTLKHHTCKIQEFADLTQVETFGFRGEALSSLCALSDVTISTCRVSAKVGTRLVFDHYGKIIQKTPYPRPRGMTVSVKQLFSTLPVHHKEFQRNIKKKRACFPFAFCRDCQFPEASPAMLPVQPVELTPRSTPPHPCSLEDNVITVFSSVKNGPGSSR
uracil requiring clones on 5-FOA selection medium ([2]; methanol induced culture): have clones that are capable of growth on the selection medium | colonies resistant to 5-FOA ([2]; uninduced culture): does not have any colonies that are resistant to 5-FOA | microsatellite instability / β-galactosidase activity (293 cells): high degree of MI leading to an increase in β-galactosidase activity
